Assay results taken from patent publication US20210107998A1 (Boehringer Ingelheim, published 2021).

T1: Recombinant human IL-23 (human, UniProt P29460 23-328)
T1 sequence 1: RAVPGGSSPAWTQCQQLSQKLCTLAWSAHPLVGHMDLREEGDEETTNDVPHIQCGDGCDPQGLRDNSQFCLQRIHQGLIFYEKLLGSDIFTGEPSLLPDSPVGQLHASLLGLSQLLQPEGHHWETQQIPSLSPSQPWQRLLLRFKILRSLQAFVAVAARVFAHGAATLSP
T1 sequence 2: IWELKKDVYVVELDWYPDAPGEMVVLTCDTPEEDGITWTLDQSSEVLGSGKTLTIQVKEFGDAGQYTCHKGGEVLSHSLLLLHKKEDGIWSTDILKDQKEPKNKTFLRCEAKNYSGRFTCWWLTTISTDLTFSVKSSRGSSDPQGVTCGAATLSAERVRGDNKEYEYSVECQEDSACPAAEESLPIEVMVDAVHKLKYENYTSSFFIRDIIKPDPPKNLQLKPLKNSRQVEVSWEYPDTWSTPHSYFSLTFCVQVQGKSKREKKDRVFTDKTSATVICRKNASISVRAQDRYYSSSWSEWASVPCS

T2: Linked human IL-23 (Boehringer Ingelheim Pharmaceuticals, Inc.) (human, UniProt P29460 23-328)
T2 sequence 1: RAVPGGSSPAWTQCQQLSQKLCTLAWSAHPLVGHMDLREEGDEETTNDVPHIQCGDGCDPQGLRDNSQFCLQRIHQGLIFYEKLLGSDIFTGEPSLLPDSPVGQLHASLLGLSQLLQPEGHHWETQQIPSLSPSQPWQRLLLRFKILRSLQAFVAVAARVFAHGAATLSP
T2 sequence 2: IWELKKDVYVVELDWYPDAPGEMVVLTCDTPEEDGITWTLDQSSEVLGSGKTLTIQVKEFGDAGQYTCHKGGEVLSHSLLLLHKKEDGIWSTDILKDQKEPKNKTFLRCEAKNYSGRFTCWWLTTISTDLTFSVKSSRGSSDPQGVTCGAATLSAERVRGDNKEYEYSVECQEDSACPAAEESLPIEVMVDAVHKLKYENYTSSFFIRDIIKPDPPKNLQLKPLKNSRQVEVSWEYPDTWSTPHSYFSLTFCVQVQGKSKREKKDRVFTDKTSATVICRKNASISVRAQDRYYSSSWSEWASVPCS

B1: Compound A (bispecific antibody, human IgG1, kappa, L234A L235A)
chain 1: DIQMTQSPSSLSASVGDRVTITCKASRDVAIAVAWYQQKPGKVPKLLIYWASTRHTGVPSRFSGSGSRTDFTLTISSLQPEDVADYFCHQYSSYPFTFGSGTKLEIKGGGSGGGGQVQLVQSGAEVKKPGASVKVSCKASGYSFSTFFIHWVRQAPGQGLEWIGRIDPNSGATKYNEKFESRVTMTRDTSISTAYMELSRLRSDDTAVYYCARGEDLLIRTDALDYWGQGTSVTVSSLGGGSGASTKGPSVFPLAPSSKSTSGGTAALGCLVKDYFPEPVTVSWNSGALTSGVHTFPAVLQSSGLYSLSSVVTVPSSSLGTQTYICNVNHKPSNTKVDKRVEPKSCDKTHTCPPCPAPEAAGGPSVFLFPPKPKDTLYITREPEVTCVVVDVSHEDPEVKFNWYVDGVEVHNAKTKPREEQYNSTYRVVSVLTVLHQDWLNGKEYKCKVSNKALPAPIEKTISKAKGQPREPQVYTLPPSREEMTKNQVSLTCLVKGFYPSDIAVEWESNGQPENNYKTTPPVLDSDGSFFLYSKLTVDKSRWQQGNVFSCSVMHEALHNHYTQKSLSLSPG
chain 2: DIQMTQSPSSLSASVGDRVSITCKASQNAGIDVAWFQQKPGKAPKLLIYSKSNRYTGVPSRFSGSGSGTDFTLTISSLQPEDFATYYCLQYRSYPRTFGQGTKLEIKGGGSGGGGQVQLVQSGAEVKKPGSSVKVSCKASGYTFTDQTIHWMRQAPGQGLEWIGYIYPRDDSPKYNENFKGKVTITADKSTSTAYMELSSLRSEDTAVYYCAIPDRSGYAWFIYWGQGTLVTVSSLGGGSGRTVAAPSVFIFPPSDEQLKSGTASVVCLLNNFYPREAKVQWKVDNALQSGNSQESVTEQDSKDSTYSLSSTLTLSKADYEKHKVYACEVTHQGLSSPVTKSFNRGEC
notes: Made in CHO-S cells
B2: Compound D (bispecific antibody, human IgG4 S228P, kappa)
chain 1: DIQMTQSPSSLSASVGDRVTITCKASRDVAIAVAWYQQKPGKVPKLLIYWASTRHTGVPSRFSGSGSRTDFTLTISSLQPEDVADYFCHQYSSYPFTFGSGTKLEIKGGGSGGGGQVQLVQSGAEVKKPGASVKVSCKASGYSFSTFFIHWVRQRPGQGLEWIGRIDPNSGATKYNEKFESKVTLTRDTSISTAYMELSRLRSDDTAVYYCARGEDLLIRTDALDYWGQGTSVTVSSLGGGSGASTKGPSVFPLAPCSRSTSESTAALGCLVKDYFPEPVTVSWNSGALTSGVHTFPAVLQSSGLYSLSSVVTVPSSSLGTKTYTCNVDHKPSNTKVDKRVESKYGPPCPPCPAPEFLGGPSVFLFPPKPKDTLYITREPEVTCVVVDVSQEDPEVQFNWYVDGVEVHNAKTKPREEQFNSTYRVVSVLTVLHQDWLNGKEYKCKVSNKGLPSSIEKTISKAKGQPREPQVYTLPPSQEEMTKNQVSLTCLVKGFYPSDIAVEWESNGQPENNYKTTPPVLDSDGSFFLYSRLTVDKSRWQEGNVFSCSVMHEALHNHYTQKSLSLSLG
chain 2: DIQMTQSPSSLSASVGDRVSITCKASQNAGIDVAWFQQKPGKAPKLLIYSKSNRYTGVPSRFSGSGSGTDFTLTISSLQPEDFADYYCLQYRSYPRTFGGGTKLEIKGGGSGGGGQVQLVQSGAEVKKPGSSVKVSCKASGYTFTDQTIHWMRQAPGQGLEWIGYIYPRDDSPKYNENFKGKVTITADKSTSTAYMELSSLRSEDTAVYYCAIPDRSGYAWFIYWGQGTLVTVSSLGGGSGRTVAAPSVFIFPPSDEQLKSGTASVVCLLNNFYPREAKVQWKVDNALQSGNSQESVTEQDSKDSTYSLSSTLTLSKADYEKHKVYACEVTHQGLSSPVTKSFNRGEC
notes: Large chain: IL23A(1) VL - BAFF(6) VH - LGGGSG - IgG4-Pro-YTE; small chain: BAFF(6) VL - IL23A(1) VH - LGGGSG - CL; Tetravalent format

How the values were obtained:
[1] = target: Recombinant cynomolgus BAFF trimer (Boehringer Ingelheim Pharmaceuticals, Inc.) (cynomolgus, UniProt A0A2K5V2X4 134-285); assay: cell-based or functional assay
Recombinant human IL-23 [2] = target: T1, Recombinant human IL-23; assay: cell-based or functional assay
[3] = target: Recombinant human BAFF 60mer (Boehringer Ingelheim Pharmaceuticals, Inc.) (human, UniProt Q9Y275 134-285, limits assumed); assay: cell-based or functional assay
[4] = target: T3, Recombinant human BAFF trimer (Boehringer Ingelheim Pharmaceuticals, Inc.) (human, UniProt Q9Y275 134-285, limits assumed); assay: cell-based or functional assay
[5] = target: membrane-bound human BAFF on fixed CHO-K1 cells (human, UniProt Q9Y275 1-285); assay: cell-based or functional assay
Recombinant human IL-23 [6] = target: T1, Recombinant human IL-23; assay: cell-based or functional assay; remark: listed apart in the source
cynomolgus IL-23 [7] = target: T4, cynomolgus IL-23 (cynomolgus, UniProt H6WS56 20-189); assay: cell-based or functional assay
[8] = target: T3, Recombinant human BAFF trimer …; assay: cell-based or functional assay; remark: listed apart in the source
human BAFF [9] = target: T5, human BAFF (human, UniProt Q9Y275 134-285, limits assumed); assay: BLI (Octet RED96, streptavidin tips), compound incubated 48 h at 37 C in whole blood vs kinetic buffer
T5 construct: also called hu BAFF; hBAFF
Procedure: (§1) A whole blood interference assay was developed on an Octet RED96 to detect the effects of non-specific binding or off-target binding for compounds in the presence of whole blood (WB). The compound solutions in whole blood and 1× kinetic running buffer (1×kb) were incubated at a temperature of 37° C. for 48 hours. Kinetic measurements for the incubated compound samples were performed with an Octet RED96 equipped with streptavidin (SA) biosensor tips (ForteBio, Menlo Park, Calif.) at 27° C. The ratio of the on-rates/binding signals in buffer and whole blood were reported. A ratio <2 was considered to show no interference.

Recombinant human IL-23 [10] = target: T1, Recombinant human IL-23; assay: as above
Procedure: as §1

[11] = target: T2, Linked human IL-23 (Boehringer …); assay: SPR (ProteOn XPR36), compound captured on goat anti-human IgG Fc, antigen injected
Procedure: (§2) SPR experiments were performed on a ProteOn XPR36 instrument (Bio Rad). A GLM chip was preconditioned with sequential injections of 60 sec of 0.5% SDS, 50 mM NaOH, and 100 mM HCl at a flow rate of 30 μl/min both vertical and horizontal directions.
(§3) The preconditioned GLM chip was then activated by an injection of EDC (76.7 mg/ml) and sulfo-NHS (21.7 mg/ml) mixture with ratio of 1:1 in 6 horizontal channels. Goat-anti-human IgG (GAHA) Fc gamma (Invitrogen) at a concentration of 30 μg/ml in 10 mM, pH 5.0 sodium acetate buffer was immobilized to 8,000 resonance units on the activated GLM chip in 6 horizontal channels. The chip was finally deactivated with 1 M ethanolamine HCl in 6 horizontal channels. The prepared GAHA chip was rotated to vertical direction to capture test compounds, over 5 vertical channels and the last channel was used as a column reference. The captured chip was then rotated again to the horizontal direction for binding. […] The dissociation was allowed for 2 hour. The GAHA surface was regenerated using short pulse injection (18 seconds) of 0.85% phosphoric acid (Bio Rad) at a flow rate of 100 μl/min both horizontal and vertical directions after 10 min association and 2 hr dissociation. The regenerated GAHA was ready for another binding cycle.

cynomolgus BAFF = target: T6, cynomolgus BAFF (cynomolgus, UniProt A0A2K5V2X4 134-285); assay: as above
T6 construct: construct not described
Procedure: as §2, §3

human BAFF [12] = target: T5, human BAFF; assay: as above
Procedure: as §2, §3

cynomolgus IL-23 [13] = target: T4, cynomolgus IL-23; assay: as above
Procedure: as §2, §3

Row | Binder | IC50 Geomean, NFkB luciferase reporter, human BAFFR-CHO cells [1] [pM] | IC90 Geomean, NFkB luciferase reporter, human BAFFR-CHO cells [1] [pM] | IC50, STAT3-luciferase reporter in DB lymphoblast B cells (Recombinant human IL-23 [2]) [pM] | IC90, STAT3-luciferase reporter in DB lymphoblast B cells (Recombinant human IL-23 [2]) [pM] | IC50, NFkB luciferase reporter, human BAFFR-CHO cells [3] [pM] | IC90, NFkB luciferase reporter, human BAFFR-CHO cells [3] [pM] | IC50 Geomean, NFkB luciferase reporter, human TACI-CHO cells [4] [pM] | IC90 Geomean, NFkB luciferase reporter, human TACI-CHO cells [4] [pM] | IC50, NFkB luciferase reporter, human BAFFR-CHO cells stimulated with fixed human BAFF CHO-K1 cells [5] [pM] | IC90, NFkB luciferase reporter, human BAFFR-CHO cells stimulated with fixed human BAFF CHO-K1 cells [5] [pM] | IC50, IL-23-induced mouse IL-17 release from mouse splenocytes (Recombinant human IL-23 [6]) [pM] | IC90, IL-23-induced mouse IL-17 release from mouse splenocytes (Recombinant human IL-23 [6]) [pM] | IC50, IL-23-induced mouse IL-17 release from mouse splenocytes (cynomolgus IL-23 [7]) [pM] | IC90, IL-23-induced mouse IL-17 release from mouse splenocytes (cynomolgus IL-23 [7]) [pM] | IC50, NFkB luciferase reporter, human BAFFR-CHO cells [8] [pM] | IC90, NFkB luciferase reporter, human BAFFR-CHO cells [8] [pM] | Ratio of binding signal in WB/kinetic buffer (human BAFF [9]) | Ratio of binding signal in WB/kinetic buffer (Recombinant human IL-23 [10]) | Kd [11] [pM] | Kd (cynomolgus BAFF) [pM] | further results
1 | B1 | 132 | 191 | 145 | 1230 | 6 | 19 | 159 | 417 | 118 | 1020 | 146 | 1650 | 155 | 1310 | 43 | 180 | 1.2 | 1.1 | < 15 | < 15 | Kd (human BAFF [12]): < 15 pM; Kd (cynomolgus IL-23 [13]): < 15 pM
2 | B2 | 118 | 248 | 128 | 3090 | 4 | 12 | 163 | 436 | 104 | 938 | 105 | 1700 | 97 | 1550 | 34 | 172 | 1.3 | 1.7 | < 15 | < 15 | Kd (human BAFF [12]): < 15 pM; Kd (cynomolgus IL-23 [13]): < 15 pM
